Holding throughout (format): biochemical, Enterococcus faecium
Data set [1] has as its system O=P(O)(O)OCC(O)CO. The data set is described as follows: Km value of modified GPO Ala 225/Gly 420. As to conditions: other: Ala 225, Gly 420, 37° C., pH 7.0 activity assay. On the procedure: (§1) According to the invention, method for the measurement GPO activity is as follows unless otherwise noted.
(§2) 300 mM Sodium (±)-1-glycerophosphate n-hydrate
(§3) A 1.0 ml portion of a reaction solution having the above composition is put into a test tube and subjected to 5 minutes of preliminary incubation at 37° C., and then 20 μl of an enzyme solution is added thereto to carry out 5 minutes of the reaction at 37° C. After the reaction, 2.0 ml of 0.5% SDS solution is added to terminate the reaction, and calorimetric determination is carried out at a wavelength of 600 nm. An activity capable of forming 1 μmole of hydrogen peroxide within 1 minute was defined as 1 unit (U). [formula]
(§4) The resulting cells were collected by centrifugation, washed with 10 mM Tris-HCl buffer (pH 8.0) containing 0.1 M sodium chloride and 1 mM EDTA and then suspended in a solution prepared by adding 1 mg/ml of lysozyme to 50 mM potassium phosphate buffer (pH 7.0) containing 10 mM EDTA and 0.1% Triton X-100, subsequently carrying out 2 hours of cell lysis at 4° C. After the cell lysis, this was subjected to ultrasonic disintegration and then centrifuged, and the supernatant was used as the enzyme solution to measure its enzyme activity, heat resistance and Km value.
(§5) In addition, improvement of two or more properties was found by a combination of these mutations. […]

The test system of data set [2] is O=P(O)(O)OCC(O)CO. The data set is described as follows: Km value of modified GPO Phe 130/Ala 225. The conditions noted are these: other: Phe 130, Ala 225, 37° C., pH 7.0 activity assay. The method, then:
as §1, §2, §3, §4, §5

Data set [3] relates to O=P(O)(O)OCC(O)CO. The data set is described as follows: Km value of GPO (wild type control, E. coli DH5/pGPO97). As to conditions: other: wild type GPO, 37° C., pH 7.0 activity assay. The method, then: as §1, §2, §3, §4, §5

Take “Enterococcus faecium No. 7044 L-α-glycerophosphate oxidase (GPO) variant Ala 225/Gly 420 (Enterococcus faecium DO; D212G/D427G/S17A)”: the Km (as a rule, the substrate concentration at which the rate is half of its maximum) in the data set with O=P(O)(O)OCC(O)CO [1] turned out to be 28.8 mM.

With “Enterococcus faecium No. 7044 L-α-glycerophosphate oxidase (GPO) variant Phe 130/Ala 225 (Enterococcus faecium DO; L137F/L267F/S362A)”, the Michaelis constant (Km) in the data set on O=P(O)(O)OCC(O)CO [2] stood at 4.6 mM.

For the substance “Enterococcus faecium No. 7044 L-α-glycerophosphate oxidase (GPO), wild type, Sequence No. 1 (Enterococcus faecium DO)”, the Km with O=P(O)(O)OCC(O)CO [3] came out at 23.2 mM.

Values taken from patent US6303357A, “L-α-glycerophosphate oxidase gene, recombinant DNA, and method for producing modified L-α-glycerophosphate oxidase gene” (priority 2000, dated 2001).
